Data published in the nanobody polyreactivity screen of Harvey et al. (2022).

Experiment: yeast display, Sf9 membrane polyspecificity reagent, FACS + sequencing; frameworks hold sequencing errors
In short: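 After 36–48 hours of galactose induction, yeast (Saccharomyces cerevisiae BJ5465) displaying a synthetic nanobody library were stained at 4 °C for 1 hour with 10% biotinylated, detergent-solubilized Sf9 membrane reagent. Streptavidin microbeads enriched the stained cells before FACS sorting into low and high (top ~1%) gates on anti-HA and streptavidin fluorescence. Each clone's polyreactivity label reflects its gate of origin.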

Sequence | polyreactivity (PSR sort gate)
QVQLVESGGGLVQAGGSLRLSCAASGRIFYGNTLGWYRQAPGKERELVAAISSGGSTNYADSVKGRFTISRDNAKNTVYLQMNSLKPEDTAVYYCAAAGRPGGYVQRDSWGQGTQVTVSS | high polyreactivity
QVQLVESGGGLVQAGGSLRLSCAASGNNFYNNAMGWYRQAPGKERELVATISRRGGRTYYADSVKGRFTISRDNAKNTVYLQMNSLKPEDTSVYYCNARFHGDYDYWGQGTQVTVSS | high polyreactivity
QVQLVESGGGLVQAVGSLRLSCAASGRIFRYNAMGWYRQAPVKERELVASITSAGSTNYADSVKGRFTISRDNAKNTVYLQMNSLKPEDTAVYYCAARAQSPPYGYWGQGTQVTVSS | high polyreactivity
QVQLVESGGGLVRAGGSLRLSCAASGSTFRQYAMGWYRQAPGKERDLVAAINWSGSSTYYADSVKGRFTISRDNAKNTVYLQMNSLKPEATAVYYCAARRVLATFQHSNSHYYWGQGTQVTVSS | high polyreactivity
QVQLVESGGGLVQAGGSLRLSCAASGRTYPGYSMGWYRQAPGKERELVAAITRGSTNYADSVKGRFTISRDNAKNTVYLQMNSLKPEYTAVYYCATRGYYYWTHYDYWGHGTQVTVSS | low polyreactivity
QVQLQESGGGLVQAGGSLRLSCAASGNISVTGFMGWYRQAPGKERELVASIGIGGTTYYADSVKGRFSISRDNAKNTVYLQMNSLKPEDTAVYYCAARYLYYAYSYWGQATQVTVSS | low polyreactivity
QVQLVESGGGLVQAGGTLRISCAASGRIFTIYAMGWYRQAPGKERELVATISSNVGSTYYADSVKGRFTISRDNAKNTVYLQMNSLKPEDTAVYYCAATRRAGFTTAKFDYWGQGTQVTVSS | high polyreactivity
QVQLVESGGGLVQAGGSLRLSCAASGSTFYGYAMGWYRQAPGKDRELVAAISSGGRTNYADSVKGRFTISRDNAKNTVYLQLHSLKPEDTAVYYCNARRIYGWWEFDYWGQGTQVTVSS | low polyreactivity
QVQLVESGGGLVQAGGSLRLSCAPYGFTFSKYAMGWYRKAPGKERELVAAITYSGGTTYYADSVKGRFTISRDNAKNTVYLQMNSLKPEDTAVYYCAADTKRRSIRYDYWGQGTQVTVSS | high polyreactivity
QVQLEDSGGGLVQAGGSLRLSCAASGRTFNKYAMGWYRQAPGKERELVAAINTSGGSTYYADSVKGRFTISRDNAKNTVYLQMNSLKPEDTAVYYCAAQSRSVYGRSYGYWGQGTQVTVSS | high polyreactivity
QVQLVESGGRLVQAGGSLRLSCAASGSILTSYPMGWNRQAPGKERELVAAISTTGGSTYYADSVKGRFTISRDNAKNTVYLQMNSLKPEDTAVYYCAKASGSGGEMDYWGQGTQVTVSS | low polyreactivity
QVQLVESGGGLGQAGGSLRLSCAASGRIFYRNAMGWYRQAPGKERELVAAISSSGSTNYADSVKGRFTISRDNAKNTVYLQMNSLKPEDTAVDYCNDVVRWGYGYDYWGQGTQVTVSS | high polyreactivity
QVQLVESGGGLVQAGGSLRLSCAASGSTFVKYDMGWYRQAPGKERELVAAITTTGGSTYYADSVKGRFTISRDNAKNTVYLQMNSLIPEDTAVYYCATLVSASRSRRFGYEYWGQGTQVTVSS | high polyreactivity
QVQLVESGGGLVQAGGSLRLSCAASGSTFRGYAMGSYRQAPGKETELVATITSGGSTNYADSVKGRFTISRDNAKNTVSLQMNSLKPEDTAVYYCNARWVPSYWKYFHANYGYWGQGTQVTVSS | high polyreactivity
QVQLVESGRGLVQAGGSLRLTCAASGSTFTANDMGGSRPATGTERELFADISSGDGTNYADSVKGRFTISRDNAKNTVYLQMISLKPEDTAVYYCAKDVYNFRTTHSYFTGYDSWGHGTQVTVSS | low polyreactivity
QVQLQESGGGLVQAGGSLRLSCAASGYISSWYPKGWYRQAPGQEREFVATIAPGATTYYADSVKGRFTMSRDYAKNTVYLQMNSLKPEDTAVYYCAAGPENNDFYSYWGQGTQVTVSS | low polyreactivity
QDQLEESGGGLVQAGGSLRLSCAASGSTFSYYTMGWYRQGPGKETELVAAISSGGSTYADSVKGRFTISRDNAKYTVYLQKNSLKPEDTAVYYCAVVGFDYGPSQALDDWGQGTQVTVSS | low polyreactivity
QVQHVESGGGLVQAGGSLRLSCAASGFIFSWNAMGWYRQAPGKERELVAGISWSGGSTYYADSVKGRFTISRDNAKNTVYLQMNRLKPEDTAVYYCAKEPSVGTGGVYRYGRGDYWGQGTQVTVSS | low polyreactivity
QVQLVESGGGLVQAGGSLRLSCAASGSTIRSNAMGWYRQAPGKERELVAAITSGGSTYYAESVKGRFTISRDNAKNTVYLQMNSLKPEDTAVYYCAVRYYRRRYDYWGQGTQVTVSS | low polyreactivity
QVQLVESGGGLVQAGGSLRLSCAASGFTFSWYAMGWYRQAPGKERELVAAISLSGDRTYYADSVKGRFTISRDNANNTVYLQMNSLKPEDTAVYYCVFAFEYWGQGTQVTVSS | low polyreactivity
QVQLVESGGGLVQAGGSLRLSCAASGRTFTRYAMGWYRQAPGKERELVAAISRSGGSTHYADSVKGRFTISRDNAKNTVYLQMNSLKPEDTAVYFCNTVGYRGRSNSRFYYWGQGTQVTVSS | high polyreactivity
QVQLVESGGGLVQAGGSLRLSCAASGRTFGTYAMGWYRQAPGKERELVAAITSGTRTYYADSVKGRFTISRDNAKNTVYLQMNSLKPEDTAVYDCAAGLVYRWSSTPRRLYYYWGQGTQVTVSS | high polyreactivity

Sequence | polyreactivity (PSR sort gate)
QVQLVESGGGLVQAGGSLRLSCAASGSIFARYAMGWYRQAPGKERELVAAITGRGGSTYYADSVKGRFTISRDNAKNTVYLHMNSLKPEDTAVYYCAPKDVRRTRGGSGDYWGQGTQVTVSS | high polyreactivity
QVQLVESGGGLVQAGGSLRLSCAASGRIFGLYAMGWYRQAPGKERELVASISQSGANTYYADSVKGRFTISRDNAKNTVYLQMNCQKPEDTAVSYCAAKRYDRYYYWVGYWGQGTQVIVSS | low polyreactivity
QVQLVESGGCLVQAGGSLRLSCAASGSIFDSNPKGWYRQAPGKERELVAAITGSGTSTYYADSVKGRFTISRDNAKNTVYLQMNSLKPEDTALNYCAAAPEYLTDHDYWGQGTQVTVSS | low polyreactivity
QVQLVESGGGLVQAGGSLRLSCAASVRIFQRNVMGWYRQAPGKEWELVATINWSGASTYYADSVKGRFTISRDNAKNTVYLQMNSLTPEDTAVYYCAKDGHYPLVYLAFDYWGQGTQVTVSS | low polyreactivity
QVQLVESGGGLVQAGGSLRLSCAASGRIFAYNAMGWYRQAPGKERELVAAIDWSGGRTYYADSVKGRFTISRDNEKNTVYLQMNSLKPEDTAVYYCATDVNSYGYYYWGQGTQVTVSS | high polyreactivity
QVQLVESGGGLVQAGGSLRLSCAASGRTFKYYTMGWYRQAPGKEREFVAAITSSGGRTYYADSVKGRFTISRDNAKNTVDLQMNSLKPEDTAVYYCAASTYRVWLAPATLSRYDYWGQGTQVTVSS | high polyreactivity
QVQLVESGGGLVQAGGSLRLSCAASGRTFGSYTMGWYRQAPGKERELVAAISWSGGRTYYADSVKGRFTISRDNAKNTVYLQMNSLKPEDTAVYYCNADAEVVPGEYDYWGQGTQVTVSS | low polyreactivity
QVQLVESVGGLVQAGGSLRLSCAASGSIFNRYAMGRYRQAPGKERELVAAISTHTGTTYYADSVKGRFTISRDNAKNTVYLQMNSLKPEDTAVYYCAKRSRYGYGKSYDYWGQGTQVTVSS | high polyreactivity
QVQLVESGGGLVQAGGSLRLSCAASGRTFSYYAMGWYRQAPGKERELGAANSGGGRTNYADSVKGRFTISRDNAKNTVYLQMNSLKPEDTAVYYCAAGASRKYQYYSRSYDYWGQGTQVTVSS | high polyreactivity
QVQLVESGGGLVQAGGSLRLSFAASGLTLYKNGMGWYRQAPGKETELVAVISRSGGRTYYADSVQGRFTISRDNAKNTVYLQMNSLKPEDTAVYYCAARQYGPRYTYYYWGQGTQVTVSS | high polyreactivity
PVQLVESRGGLVQAGGSLRLSCAASGIIFQRYAMGWYRQAPGKERELVAAINFSGGSTYYADSVKGRFTISRDNAKNTVYLQMNSLKPEDTSVYYCARAGRYAAYSPFYYWGQGTQVTVSS | high polyreactivity
QVQLVESGGGLVQAGGSLRLSCAASGRTFEHYAMGWYRQAPGKERELVAAITWSGVSTYYADSVKGRFTISRDNAKNTVYVQMNSLKPEDTAVYYCAANWLGYGFDYWGQGTQVTVSS | low polyreactivity
QVQLQESGGGLVQAGGSLRLSCAASGSISGPHVMGWYRQAPGKEREFVAAINVGANTYYADNVKGRFTISRDNAINTVYLQMNSLKTEDTAVYYCAAVYYGDIGHEYWGQGTQVTVSC | low polyreactivity
QVQLVESGGGLVQAGGSLRLSCAASGRTFGYNAMGWYRQAPGKERELVATISWGCGSTYYADSLKWRFTISPDNAKNTVYLQMNSLKPEDTAVYYCNKVHYGRLHSYSRAIYGEDYWGQGTQVTVSS | high polyreactivity
QVQLVESGGGLVQAGGSLRLSSAASGITFRGSAMGWYRQAPGKERELVASITNTDSTYYADSVKGRFTISRDNAKHTVYLQMNSLKPEDTAVYYCAARRGRKYGYWGQGTQVTVSS | high polyreactivity
QVQLVESRGRLVQAGGSLRLSCAASGITFYVYTMGWYRQAPGKERELVAAINGSGGSTNYADSVKGRFTISRDNAKNSVYLHMNSLKTEDTAVYYCAADWSLRLYDYWGQGTQVTVSS | low polyreactivity
QVQLVESGGGLVQAGGSLRLSCAASGRIFWDNAMGWYRQAPGKERELVAAISDSVVITYYADSVKGRFTISRDNAKNTVYLQMNSLKPEDTAVYYCAADKRGTVYLSSFWMDYWGQGTQVTVSW | low polyreactivity
QVQLVESGGGLVQAGGSLRLSCAASGFTFGRNTMGWYRQAPGKERELVAAIDSGGNTYADSVKGRFTISRDNAKNTVYLQMNSLKPEDTAVYYCAVDVGEFSSYGYWGQGTQVTVSS | low polyreactivity
QVQLVESGGGLVQAGGSLRLSCAASGRTFEHYGMGWYRQAPGKEREFVADISRIGGSTYADSVKGRFTISRDNAKNTVYLQKNSLKPEDSAVYYCNKARYQLGSGYNYWGQGTQVTVSS | low polyreactivity
QVQLVESGGGLVQAGGSLRLSCAASGSTFKYYAMGWYRQAPGKERELVASITRTGSSTYYADSVKGRFTISRDNAKNTVYLQMNSLKPEDTAVYFCNTGPHSVWWHYGYDYWGQGTQVTVSS | high polyreactivity
QVQLVESGGGLVQAGGSLRLRCDASGLIFYDNMGWYRQAPGKERELVAAISSSGGSTSYADSVKGRFTISRDNAKNTVYLQMNSLKPEDTAVYYCAADSYPAYLGFVGFDYWGQGTQVTVSS | low polyreactivity
